This data set can be described thus: Solubility and stability of the N-TRADD NMR sample. The class given is physicochemical. An excerpt: Cloning and site directed mutagenesis: The DNA sequence coding for the first 169 amino acids from N-TRADD was cloned in pRSETB (Invitrogen) after amplification by PCR. The primer at the 5′ end introduces an NdeI site upstream from the initiation site, and the primer at the 3′ end introduces a His tag after aa169. The sequence was confirmed by sequencing analysis. Single point mutations were introduced using Chameleon double-stranded site directed mutagenesis (Stratagene). The C-TRAF2 sequence (residues 262 to 501 of human TRAF2) was amplified by PCR using a 5′ end primer flanking with an XhoI and NdeI site, which introduces a Met before residue 262, and a 3′ end primer introducing 6×His before a stop codon followed by a NcoI site. The C-TRAF2 sequence was cloned into pAcSG2 (Pharmingen) by XhoI and NcoI sites for baculovirus expression. Protein expression and purification: The polypeptide for N-TRADD (1-169) was overexpressed in BL-21 E. coli. [U-^15N] or [U-^13C, U-^15N]. N-TRADD was purified from cells grown at 25° C. on minimal medium containing 2 g/L […] or [^15N]ammonium sulfate and 2 g/L [U-^13C]glucose. […]
Structure Determination: The structure of N-TRADD was determined from 2302 NMR derived restraints obtained using uniformly ^15N and ^15N/^13C labeled protein, with double and triple resonance NMR experiments. […]

As usually defined, the solubility is how much of the substance goes into solution per volume. A low value points to little dissolved substance.

B1: N-TRADD: N-terminal domain (amino acid residues 1-169, SEQ ID NO:1) of human TNFR-1 associated death domain protein (protein)
chain: MAAGQNGHEWVGSAYLFVESSLDKVVLSDAYAHPQQKVAVYRALQAALAESGGSPDVLQMLKIHRSDPQLIVQLRFCGRQPCGRFLRAYREGALRAALQRSLAAALAQHSVPLQLELRAGAERLDALLADEERCLSCILAQQPDRLRDEELAELEDALRNLKCGSGAR
For the molecule B1, where the note is “dithiothreitol (20 mM) required to prevent aggregation”, the solubility is roughly 1000 µM. Besides, the sample stability (~1 mM, 20 mM dithiothreitol) was 6-8 weeks.

These data come from patent US7460961B2, “N-TRADD active site and uses thereof” (Genetics Institute, LLC, priority 2000, dated 2008).
